Test results from patent US20190389961A1 (INNATE PHARMA, published 2019).

What was measured:
[1] = target: T1, human CD39 mutant 15 (human, UniProt P49961 1-510); assay: flow cytometry on Hek-293T cells expressing CD39 mutant 15 (panel M15); unstained (US) median 8,98; antibody concentration not shown
T1 construct: Expressed on Hek-293T cells; also called M15
T1 chain: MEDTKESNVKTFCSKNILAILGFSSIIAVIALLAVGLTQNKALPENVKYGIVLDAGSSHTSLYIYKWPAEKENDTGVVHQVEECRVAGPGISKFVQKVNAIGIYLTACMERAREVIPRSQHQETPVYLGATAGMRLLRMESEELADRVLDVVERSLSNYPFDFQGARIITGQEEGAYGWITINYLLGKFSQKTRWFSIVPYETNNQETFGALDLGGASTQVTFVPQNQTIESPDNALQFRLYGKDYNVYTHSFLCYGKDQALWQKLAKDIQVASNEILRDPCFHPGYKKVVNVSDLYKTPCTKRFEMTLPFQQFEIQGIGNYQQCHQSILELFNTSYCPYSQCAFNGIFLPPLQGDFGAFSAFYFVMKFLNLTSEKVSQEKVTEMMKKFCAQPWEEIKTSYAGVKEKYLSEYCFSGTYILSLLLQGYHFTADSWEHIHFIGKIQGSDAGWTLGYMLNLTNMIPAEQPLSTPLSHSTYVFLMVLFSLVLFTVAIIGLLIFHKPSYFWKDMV
Method: (§1) Mutants were transfected in Hek-293T cells, as shown in the table 1, using numbering of SEQ ID NO: 1. […] Mutant 19 includes substitutions at residues R138, M139 and E142.
(§2) In order to define the epitopes of the further anti-CD39 antibodies of Example 5, they were tested for loss of binding to the panel of CD39 mutants as described in Example 1 and Table 1. Mutants were transfected in Hek-293T cells, as shown in the table 1, using numbering of SEQ ID NO: 1.Dose-ranges of test antibodies (10-2.5-0.625-0.1563-0.0391-0.0098-0.0024-0.0006 μg/ml) are tested on the 20 generated mutants by flow cytometry.

[2] = target: T2, human CD39 mutant 19 (human, UniProt P49961 1-510); assay: flow cytometry on Hek-293T cells expressing CD39 mutant 19 (panel M19)
T2 construct: Expressed on Hek-293T cells; also called M19
T2 chain: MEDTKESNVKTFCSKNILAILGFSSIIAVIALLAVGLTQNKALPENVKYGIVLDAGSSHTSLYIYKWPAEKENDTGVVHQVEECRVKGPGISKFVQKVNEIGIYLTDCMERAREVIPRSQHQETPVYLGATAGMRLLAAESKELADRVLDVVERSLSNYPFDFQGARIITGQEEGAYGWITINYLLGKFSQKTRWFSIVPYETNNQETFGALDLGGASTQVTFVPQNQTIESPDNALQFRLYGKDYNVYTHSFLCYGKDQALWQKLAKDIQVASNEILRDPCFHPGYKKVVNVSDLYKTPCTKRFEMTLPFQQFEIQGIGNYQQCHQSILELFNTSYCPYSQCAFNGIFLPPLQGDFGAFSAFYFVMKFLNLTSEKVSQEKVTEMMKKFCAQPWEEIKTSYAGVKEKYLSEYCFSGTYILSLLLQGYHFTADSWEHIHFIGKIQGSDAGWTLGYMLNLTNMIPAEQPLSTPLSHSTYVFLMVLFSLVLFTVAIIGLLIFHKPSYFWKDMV
Method: as §1, §2

[3] = target: T2, human CD39 mutant 19; assay: flow cytometry on Hek-293T cells expressing CD39 mutant 19 (panel M19); unstained (US) median 8,98; antibody concentration not shown
Method: as §1, §2

[4] = target: T3, human CD39 (vascular CD39, NTPDase1) expressed at the surface of cells (human, UniProt P49961 1-510); assay: flow cytometry on Hek-293T cells expressing wild-type CD39 (panel WT); unstained (US) median 10,3; antibody concentration not shown
T3 construct: also called huCD39; CHO-huCD39
T3 sequence: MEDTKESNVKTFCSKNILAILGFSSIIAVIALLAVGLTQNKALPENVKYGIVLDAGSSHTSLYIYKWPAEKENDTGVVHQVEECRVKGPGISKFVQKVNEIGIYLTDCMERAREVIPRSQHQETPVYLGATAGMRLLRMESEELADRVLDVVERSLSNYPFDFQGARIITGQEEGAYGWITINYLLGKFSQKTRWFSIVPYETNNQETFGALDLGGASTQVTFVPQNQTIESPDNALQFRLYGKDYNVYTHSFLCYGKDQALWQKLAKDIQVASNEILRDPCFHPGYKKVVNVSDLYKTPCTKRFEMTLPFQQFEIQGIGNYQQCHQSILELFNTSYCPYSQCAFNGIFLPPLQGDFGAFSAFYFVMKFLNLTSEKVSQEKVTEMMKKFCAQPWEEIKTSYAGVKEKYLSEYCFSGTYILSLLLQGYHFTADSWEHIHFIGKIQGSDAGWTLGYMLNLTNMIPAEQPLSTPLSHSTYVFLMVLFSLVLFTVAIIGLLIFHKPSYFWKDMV
Method: as §1, §2

[5] = target: T4, human CD39 mutant 5 (human, UniProt P49961 1-510); assay: flow cytometry on Hek-293T cells expressing CD39 mutant 5 (panel M5)
T4 construct: Expressed on Hek-293T cells; also called M5
T4 chain: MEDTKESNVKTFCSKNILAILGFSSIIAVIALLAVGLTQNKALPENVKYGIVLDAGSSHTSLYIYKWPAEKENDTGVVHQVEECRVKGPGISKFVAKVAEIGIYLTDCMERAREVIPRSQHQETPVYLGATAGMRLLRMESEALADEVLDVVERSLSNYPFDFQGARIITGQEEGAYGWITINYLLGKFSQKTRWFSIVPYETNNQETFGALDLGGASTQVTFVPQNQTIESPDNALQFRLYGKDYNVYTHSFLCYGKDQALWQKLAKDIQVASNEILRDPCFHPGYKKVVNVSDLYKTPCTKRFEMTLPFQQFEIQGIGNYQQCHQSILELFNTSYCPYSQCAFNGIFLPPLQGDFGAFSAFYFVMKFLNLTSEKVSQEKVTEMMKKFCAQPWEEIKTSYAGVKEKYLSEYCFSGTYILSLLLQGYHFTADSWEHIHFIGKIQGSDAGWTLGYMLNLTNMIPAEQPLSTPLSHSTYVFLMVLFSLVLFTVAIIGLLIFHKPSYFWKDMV
Method: as §2

[6] = target: T4, human CD39 mutant 5; assay: flow cytometry on Hek-293T cells expressing CD39 mutant 5 (panel M5); unstained (US) median 8,98; antibody concentration not shown
Method: as §1, §2

[7] = target: T4, human CD39 mutant 5; assay: flow cytometry, Hek-293T cells expressing the mutant
Method: as §2

[8] = target: T5, human CD39 mutant 11 (human, UniProt P49961 1-510); assay: as above
T5 construct: Expressed on Hek-293T cells
T5 sequence: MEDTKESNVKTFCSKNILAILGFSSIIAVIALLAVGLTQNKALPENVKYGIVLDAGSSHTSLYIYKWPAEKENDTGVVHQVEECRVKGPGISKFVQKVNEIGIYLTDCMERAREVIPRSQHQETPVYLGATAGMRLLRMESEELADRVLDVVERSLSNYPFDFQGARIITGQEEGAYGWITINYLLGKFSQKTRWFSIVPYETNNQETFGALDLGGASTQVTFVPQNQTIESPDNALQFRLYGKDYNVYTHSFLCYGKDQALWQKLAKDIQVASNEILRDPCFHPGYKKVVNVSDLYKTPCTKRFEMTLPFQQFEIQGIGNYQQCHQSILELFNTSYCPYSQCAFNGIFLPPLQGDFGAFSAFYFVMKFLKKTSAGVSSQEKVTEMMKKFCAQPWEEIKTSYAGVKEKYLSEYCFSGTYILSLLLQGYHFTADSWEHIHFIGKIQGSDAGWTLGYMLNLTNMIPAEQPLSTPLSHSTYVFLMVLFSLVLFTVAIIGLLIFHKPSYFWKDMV
Method: as §2

[9] = target: T1, human CD39 mutant 15; assay: as above
Method: as §2

[10] = target: T2, human CD39 mutant 19; assay: as above
Method: as §2

[11] = target: T1, human CD39 mutant 15; assay: flow cytometry on Hek-293T cells expressing CD39 mutant 15 (panel M15)
Method: as §2

Row | Binder | Median : Comp-Alexa Fluor 647-A [1] | binding result [2] | Median : Comp-Alexa Fluor 647-A [3] | Median : Comp-Alexa Fluor 647-A [4] | binding result [5] | Median : Comp-Alexa Fluor 647-A [6] | binding result [7] | binding result [8] | binding result [9] | binding result [10] | binding result [11]
1 | antibody I-395 (antibody, V domains shown) VH: EVQLQQSGPELVKPGASVRMSCKASGYTFTDYNMHWVKKNHGKGLEWIGYINPNNGGTTYNQKFKGKATLTVNTSSKTAYMELRSLTSEDSAVYYCTRGGTRFASWGQGTLVTVSA VL: not shown | 5750 | no binding | 15.4 | 4240 | no binding | 52.6 | – | – | – | – | –
2 | antibody I-399 (antibody, V domains shown) VH: PVQLQQPGAEVVMPGASVKLSCKASGYTFTSFWMNWMRQRPGQGLEWIGEIDPSDFYTNSNQRFKGKATLTVDKSSSTAYMQLSSLTSEDSAVYFCARGDFGWYFDVWGTGTSVTVSS VL: EIVLTQSPTTMTSSPGEKITFTCSASSSINSNYLHWYQQKPGFSPKLLIYRTSNLASGVPTRFSGSGSGTSYSLTIGTMEAEDVATYYCQQGSSLPRTFGGGTKLEIK | – | – | – | – | – | – | binds | no binding (tested: dose range up to 10 µg/ml) | binds | binds | –
3 | antibody I-396 (antibody, V domains shown) VH: EVQLQQSGAELVKPGASVKLSCIVSGFNIKDTYINWVKQRPEQGLEWIGRIDPANGNTKYDPKFQGKATMTSDTSSNTAYLHLSSLTSDDSAVYYCARWGYDDEEADYFDSWGQGTTLTVSS VL: not shown | 35.9 | – | 8890 | 4340 | – | 8190 | – | – | – | – | no binding
